The supplement of paper PMC10567573

B1: PPEF2 (parent)
chain: FIPSSHNDRDFLTRIFTEDRFAQD
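Further: lentivirally expressed fusions sorted by FACS into six bins by GFP to DsRed ratio, PSI derived from sequencing read proportions per bin multiplied by bin number.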

Variants of: B1
Assay: protein stability index of a GFP-peptide fusion (GPS, HEK-293T) (PSI 1-6); higher = more stable
Details: c terminus: a fixed tail appended
With FIPSSHNDRPFLTRIFTEDRFAQD the protein stability index was 2.14. For FIPSSHNDRGFLTRIFTEDRFAQD, the protein stability index was 2.46. For FIPSSHNDRDFLTRIFTEDVFAQD, the protein stability index was 1.99. With FIPSSHNDRDFLTRIFTEDGFAQD the protein stability index was 1.69. For FIPSSHNDRDFLTRIFTEDKFAQD, the protein stability index was 2.11. FIPSSHNDRDFLTRIFTEDSFAQD showed a protein stability index of 2.65. Work on FIPSSHNDRDFLTRIFTEDNFAQD yielded a protein stability index of 2.07. FIPSSHNDRDFLTRIFTEDWFAQD showed a protein stability index of 2.54. In the case of FIPSSHNDRDFLTRIFTEDEFAQD, the protein stability index is reported as 1.81. In the case of FIPSSHNDRDFQTRIFTEDRFAQD, the protein stability index is reported as 1.82. Variant FIPSSHNDRDFATRIFTEDRFAQD has a protein stability index of 2.82. With FIPSSHNDRDFWTRIFTEDRFAQD the protein stability index was 2.85. In the case of FIPSSHNDRDFNTRIFTEDRFAQD, the protein stability index is reported as 1.45. In the case of FIPSSHNDRDFETRIFTEDRFAQD, the protein stability index is reported as 2.2. FIPSSHNDRDFTTRIFTEDRFAQD showed a protein stability index of 2.17. Work on FIPSSHNDRDFGTRIFTEDRFAQD yielded a protein stability index of 1.52. Variant FIPSSHNDRDFLTRIFTEDRFADD has a protein stability index of 1.72. For FIPSSHNDRDFLTRIFTEDRFAED, the protein stability index was 2.06. Variant FIPSSHNDRDFLTRIFTEDRFAHD has a protein stability index of 2.18. With FIPSSHNDRDFLTRQFTEDRFAQD the protein stability index was 2.19. Work on FIPSSHNDRDFLTRRFTEDRFAQD yielded a protein stability index of 2.9. With FIPSSHNDRDFLTRTFTEDRFAQD the protein stability index was 2.45. For FIPSSHNDRDFLTRAFTEDRFAQD, the protein stability index was 1.61. In the case of FIPSSHNDRDFLTRHFTEDRFAQD, the protein stability index is reported as 2.4. In the case of FIPSSHNDRDFLTRINTEDRFAQD, the protein stability index is reported as 2.12. FIPSSHNDRDFLTRIGTEDRFAQD showed a protein stability index of 1.92. For FIPSSHNDRDFLTRISTEDRFAQD, the protein stability index was 1.72. For FIPSSHNDRDFLTRIQTEDRFAQD, the protein stability index was 2.06. Work on FIPSSHNDRDFLTRIATEDRFAQD yielded a protein stability index of 1.76. FIPSSHNDRDFLTRICTEDRFAQD gave a protein stability index of 2.48. Variant FIPMSHNDRDFLTRIFTEDRFAQD has a protein stability index of 1.31. For FIPESHNDRDFLTRIFTEDRFAQD, the protein stability index was 1.63. FIPCSHNDRDFLTRIFTEDRFAQD showed a protein stability index of 1.39. Variant FIPSSHNDRDHLTRIFTEDRFAQD has a protein stability index of 1.89. In the case of FIPSSHNDRDYLTRIFTEDRFAQD, the protein stability index is reported as 2.1. In the case of FIPSSHNDRDMLTRIFTEDRFAQD, the protein stability index is reported as 2.13. Work on FIPSSHNDRDWLTRIFTEDRFAQD yielded a protein stability index of 1.93. FIPSSHNDRDNLTRIFTEDRFAQD gave a protein stability index of 2.67. Work on FIPSSHNDRDPLTRIFTEDRFAQD yielded a protein stability index of 2.16. In the case of GIPSSHNDRDFLTRIFTEDRFAQD, the protein stability index is reported as 4.38. In the case of LIPSSHNDRDFLTRIFTEDRFAQD, the protein stability index is reported as 3.73. For HIPSSHNDRDFLTRIFTEDRFAQD, the protein stability index was 4.22. For FIPSSHADRDFLTRIFTEDRFAQD, the protein stability index was 1.65. FIPSSHGDRDFLTRIFTEDRFAQD gave a protein stability index of 2.01. In the case of FIPSSHMDRDFLTRIFTEDRFAQD, the protein stability index is reported as 2.22. Variant FIPSSHRDRDFLTRIFTEDRFAQD has a protein stability index of 2.33. FIPSSHWDRDFLTRIFTEDRFAQD showed a protein stability index of 1.6. Variant FIFSSHNDRDFLTRIFTEDRFAQD has a protein stability index of 1.79. Variant FIQSSHNDRDFLTRIFTEDRFAQD has a protein stability index of 1.92. FIDSSHNDRDFLTRIFTEDRFAQD showed a protein stability index of 2.75. For FICSSHNDRDFLTRIFTEDRFAQD, the protein stability index was 1.3. FIMSSHNDRDFLTRIFTEDRFAQD gave a protein stability index of 1.34. In the case of FILSSHNDRDFLTRIFTEDRFAQD, the protein stability index is reported as 1.92. Variant FIPSSHNDRDFLTRIFTNDRFAQD has a protein stability index of 2.12. Variant FIPSSHNDRDFLTRIFTIDRFAQD has a protein stability index of 3.03. Work on FIPSSHNDRDFLTRIFTHDRFAQD yielded a protein stability index of 3.19. FIPSSHNDRDFLTRIFTCDRFAQD showed a protein stability index of 2.79. With FIPSSHNDRDFLTRIFTSDRFAQD the protein stability index was 2.18. Work on FIPSSHNDRDFLTRIFTVDRFAQD yielded a protein stability index of 2.51. FIPSSHNDRDFLTRIFTPDRFAQD showed a protein stability index of 2.98. FIPSSHNDRDFLHRIFTEDRFAQD showed a protein stability index of 1.6. Variant FIPSSHNDRDFLNRIFTEDRFAQD has a protein stability index of 1.7. With FIPSSHNDRDFLLRIFTEDRFAQD the protein stability index was 3.13. With FIPSSHNDRDFLRRIFTEDRFAQD the protein stability index was 1.91. In the case of FIPSSHNDRDFLSRIFTEDRFAQD, the protein stability index is reported as 1.83. In the case of FIPSSHNDRDFLYRIFTEDRFAQD, the protein stability index is reported as 2.65. FIPSIHNDRDFLTRIFTEDRFAQD gave a protein stability index of 2.04. Variant FIPSFHNDRDFLTRIFTEDRFAQD has a protein stability index of 1.55. Variant FIPSSHNQRDFLTRIFTEDRFAQD has a protein stability index of 2.15. Work on FIPSSHNSRDFLTRIFTEDRFAQD yielded a protein stability index of 1.3. For FIPSSHNKRDFLTRIFTEDRFAQD, the protein stability index was 1.53. FIPSSHNIRDFLTRIFTEDRFAQD gave a protein stability index of 1.68. FIPSSHNFRDFLTRIFTEDRFAQD gave a protein stability index of 2.38. For FIPSSHNARDFLTRIFTEDRFAQD, the protein stability index was 1.89. In the case of FIPSSHNRRDFLTRIFTEDRFAQD, the protein stability index is reported as 2.25. For FIPSSHNVRDFLTRIFTEDRFAQD, the protein stability index was 2.08. Variant FIPSSHNDRDFLTRIFTEDRFAQC has a protein stability index of 1.75. Variant FIPSSHNDRDFLTRIFTEDRFAQF has a protein stability index of 2.83. FIPSSHNDRDFLTRIFTEDRFAQI gave a protein stability index of 2.99. Variant FIPSSHNDRDFLTRIFTEDRVAQD has a protein stability index of 1.64. FIPSSHNDRDFLTRIFTEDRCAQD gave a protein stability index of 1.81. With FIPSSHNDRDFLTRIFTEDREAQD the protein stability index was 1.81. With FIPSSHNDRDFLTRIFTEDRIAQD the protein stability index was 1.74. In the case of FIPSSHNDRDFLTRIFTEDRYAQD, the protein stability index is reported as 2.27. Variant FIPSSHNDRDFLTRIFTEDRFIQD has a protein stability index of 1.78. FIPSSHNDRDFLTRIFTEDRFWQD showed a protein stability index of 3.33. Variant FIPSSHNDRDFLTRIFTEDRFEQD has a protein stability index of 2.2. FIPSSHNDRDFLTRIFTEDRFGQD showed a protein stability index of 1.89. FIPSSHNDRDFLTKIFTEDRFAQD gave a protein stability index of 1.55. With FIPSSHNDRDFLTYIFTEDRFAQD the protein stability index was 1.7. Work on FIPSSHNDRDFLTVIFTEDRFAQD yielded a protein stability index of 3.04. With FIPSSHNDRDFLTQIFTEDRFAQD the protein stability index was 1.93. Variant FIPSSHNDRDFLTLIFTEDRFAQD has a protein stability index of 2. For FIPSSHNDRDFLTFIFTEDRFAQD, the protein stability index was 2.7.
